Experimental data published in doi:10.1101/405654.

Biological target: GMPCPP-stabilised, rhodamine labelled microtubules (porcine brain tubulin) (porcine (purified from porcine brain)) (UniProt P02550)
Assay: single-molecule TIRF microscopy

Chain of UniProt P02550 (P02550 whole entry): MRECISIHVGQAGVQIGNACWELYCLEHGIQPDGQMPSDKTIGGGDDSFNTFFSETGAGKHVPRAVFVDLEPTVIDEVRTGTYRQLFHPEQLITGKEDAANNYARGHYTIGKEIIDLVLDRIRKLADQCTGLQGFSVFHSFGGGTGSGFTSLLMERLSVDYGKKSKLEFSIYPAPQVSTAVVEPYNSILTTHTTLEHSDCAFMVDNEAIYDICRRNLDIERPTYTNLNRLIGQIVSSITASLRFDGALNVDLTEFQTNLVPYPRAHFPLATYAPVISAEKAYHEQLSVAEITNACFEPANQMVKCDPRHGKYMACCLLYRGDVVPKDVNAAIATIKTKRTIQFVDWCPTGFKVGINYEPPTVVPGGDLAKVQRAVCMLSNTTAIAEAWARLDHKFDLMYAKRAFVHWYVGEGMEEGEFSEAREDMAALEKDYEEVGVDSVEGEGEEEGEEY

Substance | microtubule end residence time
Rat kinesin-1 rKin430-GFP-h6 G262K (domain or fragment) | 0.74 s
Rat kinesin-1 rKin430-GFP-h6 S266A (domain or fragment) | 0.8 s
Rat kinesin-1 rKin430-GFP-h6, wild type (domain or fragment) | 0.35 s

Second part, the substance after the results:

microtubule end residence time | Substance
0.98 s | Rat kinesin-1 rKin430-GFP-h6 N263E (domain or fragment)
1.39 s | Rat kinesin-1 rKin430-GFP-h6 S266R (domain or fragment)
0.97 s | Rat kinesin-1 rKin430-GFP-h6 triple mutant (G262K, N263E, S266R) (domain or fragment)
